For assay [1], the target named is T1, human CD38 protein (human, UniProt P28907 43-300).
T1 sequence (looked up): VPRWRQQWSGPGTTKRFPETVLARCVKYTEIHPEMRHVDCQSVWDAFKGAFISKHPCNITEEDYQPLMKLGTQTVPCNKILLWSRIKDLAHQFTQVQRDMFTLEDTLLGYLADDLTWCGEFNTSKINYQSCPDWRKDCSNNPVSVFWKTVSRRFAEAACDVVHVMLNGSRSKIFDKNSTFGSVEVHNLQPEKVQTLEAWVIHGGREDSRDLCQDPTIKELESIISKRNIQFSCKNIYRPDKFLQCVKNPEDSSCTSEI
The assay can be described thus: ELISA, plate coated with human CD38 protein, absorbance at 650 nm.
Description: Binding of the humanized antibody to human CD38 was tested. The ELISA plate was coated with 0.1 mg/well of human CD38 protein. 1t antibody (humanized anti-aNKp46 antibody or humanized anti-CD38 antibody) was added at 0.1 mg/well. Secondary antibody was diluted 1:7500. After addition of Streptavidin-HRP and TMB substrate the optical absorbance was measured at 650 nm.

Assay [2] concerns the target T2, human CD38 expressed on multiple myeloma cells (KMS11, MM1.S) (human, UniProt P28907 1-300).
T2 construct: whole, on cells; Naturally expressed on KMS11 and MM1.S cell lines; a CD38 knock out MM.1S line served as negative control
T2 sequence (looked up): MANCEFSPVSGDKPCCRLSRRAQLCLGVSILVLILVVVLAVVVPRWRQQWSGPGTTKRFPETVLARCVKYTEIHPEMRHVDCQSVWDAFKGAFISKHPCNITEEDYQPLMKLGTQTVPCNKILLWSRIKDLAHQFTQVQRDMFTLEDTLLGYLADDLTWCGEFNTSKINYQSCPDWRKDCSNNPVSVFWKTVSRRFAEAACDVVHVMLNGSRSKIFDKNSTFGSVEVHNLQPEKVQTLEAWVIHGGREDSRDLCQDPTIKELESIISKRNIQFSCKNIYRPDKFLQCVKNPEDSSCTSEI
The assay can be described thus: flow cytometry on KMS11 wt cells.

The target in assay [3] is T2, human CD38 expressed on multiple …. The assay can be described thus: flow cytometry on MM.1S wt cells.

B1: humanized anti-CD38 antibody (antibody, V domains shown)
VH: QVQLVQSGAEVKKPGASVKVSCKASGYTFTSYWMQWVRQAPGQGLEWMGAIYPGDGDTRYTQKFKGRVTMTRDTSTSTVYMELSSLRSEDTAVYYCARERTTGAPRYFDVWGQGTLVTVSS
VL: DIQMTQSPSSLSASVGDRVTITCRASENIYSFLAWYQQKPGKAPKLLIYNTKTLTEGVPSRFSGSGSGTDFTLTISSLQPEDFATYYCQHHYGIPLTFGGGTKVEIK
notes: also called CD38-IgG1 L234A, L235A; CD38-IgG1 wildtype
Regarding B1, the binding result in assay [1] is recorded as “binds”.

B2: NKE2 with wild type (WT) Fc (bispecific antibody, human IgG1, kappa)
heavy: not shown
light 1: DIVMTQSPATLSLSPGERATLSCRASQSISDYLHWFQQKPHESPRLLIKYASQSISGIPARFSGSGSGSDFTLTISSLEPEDFAVYYCQNGHSFPLTFGPGTKVDIKRTVAAPAVFIFPPSDEQLKSGTASVVCLLKNFYPREAKVQWKVDNALQSGNSQESVTEQDSKDSTYSLSSTLTLSKADYEKHKVYACEVTHQGLSSPVTKSFNRGEC
light 2: DIQMTQSPSSLSASVGDRVTITCRASENIYSFLAWYQQKPGKAPKLLIYNTKTLTEGVPSRFSGSGSGTDFTLTISSLQPEDFATYYCQHHYGIPLTFGGGTKVEIKRTVAAPSVFIFPPSDEQLKSGTASVVCLLNNFYPREAKVQWKVDNALQSGNSQESVTEQDSKDSTYSLSSTLTLSKADYEKHKVYACEVTHQGLSSPVTKSFNRGEC
notes: Tetravalent IgG1-like tandem-Fab molecule: anti-CD38 Fab, linker, humanized 09 anti-NKp46 Fab, hinge, IgG1 Fc; also called NKE2 WT; NKE2 WT-Fc
Turning to B2, the results for the “EC50 (read off the curve)” value in assay [2] and in assay [3] were ~0.2 µg/mL and ~0.3 µg/mL, respectively.

B3: NKE2 with mutant null Fc (bispecific antibody, human IgG1, kappa, L234A L235A)
heavy: not shown
light 1: B2 light 1
light 2: B2 light 2
notes: As NKE2 WT but with IgG1 L234A/L235A Fc; also called NKE2 Mut Fc (Fc silent); NKE2 MUT
With B3, the results for the “EC50 (read off the curve)” value in assay [2] and in assay [3] were ~0.2 µg/mL and ~0.3 µg/mL, respectively.

The record behind these values is patent US20240199756A1 (CYTOVIA THERAPEUTICS, published 2024).
